The target of assay [1] is T1, IL-2/IL-2Rβ binary complex (Homo sapiens, UniProt P60568;P14784).
T1 construct: human IL-2, amino acids 1-133; human IL-2Rβ ectodomain, amino acids 1-214; also called IL-2 BC; IL-2 binary complex; source: baculovirus expression system, purified (nickel chromatography, SEC)
Briefly: flow cytometry on cells; scFv displayed on yeast; 1 μM of the indicated biotinylated complex components in PBE buffer, 2 h at room temperature; detection with 50 nM SA-647. As to conditions: one partner purified. (Flow cytometry measures light scatter and fluorescence of single cells or particles in a stream.)

Assay [2] deals with T2, IL-2Rβ ectodomain, biotinylated (for staining of yeast) (Homo sapiens, UniProt P14784, biotin (site not stated)).
T2 construct: human IL-2Rβ ectodomain, amino acids 1-214; also called the receptor; source: baculovirus expression system, purified (nickel chromatography, SEC)
The assay is described as above. As to conditions: one partner purified.

For assay [3], the target named is T3, IL-2, biotinylated (for staining of yeast) (Homo sapiens, UniProt P60568, biotin (site not stated)).
T3 construct: human IL-2, amino acids 1-133; also called interleukin-2; the cytokine; source: baculovirus expression system, purified (nickel chromatography, SEC)
The description is as above. As to conditions: one partner purified.

Assay [4] concerns the target T4, Super-2/IL-2Rβ binary complex (human, UniProt P60568;P14784).
T4 construct: human IL-2Rβ ectodomain, amino acids 1-214; also called stabilized Super-2/IL-2Rβ binary complex; source: baculovirus expression system, purified (nickel chromatography, SEC)
T4 chain 1: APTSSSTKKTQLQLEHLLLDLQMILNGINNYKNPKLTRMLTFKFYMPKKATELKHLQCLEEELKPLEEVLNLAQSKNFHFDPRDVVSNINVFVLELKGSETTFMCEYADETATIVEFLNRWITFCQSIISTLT
T4 chain 2: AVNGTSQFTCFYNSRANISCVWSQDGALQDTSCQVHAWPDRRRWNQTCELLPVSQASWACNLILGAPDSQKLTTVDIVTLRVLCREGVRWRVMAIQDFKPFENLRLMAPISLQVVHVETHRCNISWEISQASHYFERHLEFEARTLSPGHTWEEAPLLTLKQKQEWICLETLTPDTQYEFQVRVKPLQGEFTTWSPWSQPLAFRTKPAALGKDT
Nature of the assay: SPR; biotinylated scFv immobilised on Biacore SA chip at low density; analytes flowed 60 s; complexes pre-incubated 30 min at room temperature; 25 °C; HBS-P+ with 0.2% BSA; KD from equilibrium titration, 1:1 model; in Fig. 1D all proteins at 60 μM. As to conditions: both partners purified. For orientation: SPR reads the build-up and loss of mass on a sensor chip optically.

B1: affinity-matured IL-2 binary complex stapler scFv, yeast-displayed (scFv, V domains shown)
VH: QVQLQQSGPGLVKPSQTLSLTCAISGDSVSSNSATWNWIRQSPSRGLEWLGRTYYRSKWYDDYAVSVKSRITINPDTSKNQFSLQLNSVTPEDTAVYYCARATYGTYDYWGQGTLVTVSS
VL: NFMLTQPHSASESPGKTVTISCTGSRGSIASNYVQWYQQRPGSAPTTVIYEDNQRPSGVPDRFSGSIDSSSNSASLTISGLKTEDEADYYCQSYDQNYHAVFGGGTQLTVL
notes: as the scFv of m6 with changes in the VH and VL CDR3 regions; also called amIL-2B stapler; amIL-2BC stapler; source: site-directed mutagenic library of IL-2B stapler
B1: the binding result in assay [1] is “binds”; in assay [2], “no binding (tested: 1 μM)”; in assay [3], “no binding (tested: 1 μM)”.

B2: affinity-matured IL-2 binary complex stapler scFv, recombinantly expressed (scFv, V domains shown)
VH: QVQLQQSGPGLVKPSQTLSLTCAISGDSVSSNSATWNWIRQSPSRGLEWLGRTYYRSKWYDDYAVSVKSRITINPDTSKNQFSLQLNSVTPEDTAVYYCARATYGTYDYWGQGTLVTVSS
VL: NFMLTQPHSASESPGKTVTISCTGSRGSIASNYVQWYQQRPGSAPTTVIYEDNQRPSGVPDRFSGSIDSSSNSASLTISGLKTEDEADYYCQSYDQNYHAVFGGGTQLTVL
notes: VH of amIL-2B stapler; as the VH of m8 with changes in CDR3; 15-amino acid (Gly4Ser)3 linker; VL of amIL-2B stapler; as the VL of m8 with changes in CDR3; Biotinylated for immobilisation in SPR; also called amIL-2B stapler; amIL-2BC stapler; source: baculovirus system (pAcGP67A), purified (nickel chromatography, SEC)
As usually defined, the Kd is the equilibrium constant for the complex coming apart. High values mean weaker binding, low ones tighter binding. In assay [4], B2 registered a Kd of 15 nM.

The record behind these values is article PMC6755802 (The Journal of Biological Chemistry, 2019).
